Patent publication US20250161474A1 (SICHUAN KELUN BIOTECH BIOPHARMACEUTICAL, published 2025)

How the values were obtained:
[1] = target: T1, human c-MET (human, UniProt P08581 25-1390); assay: flow cytometry on MKN45 cells (highly express c-MET)
T1 construct: whole, on cells; also called tyrosine protein kinase Met; hepatocyte growth factor receptor
Description: (§1) A flow cytometer (Beckman, model Cytoflex) was used to detect the interaction between anti-human EGFR/c-MET bispecific antibodies and their conjugates and human gastric cancer cells MKN45 (Nanjing Cobioer Biosciences) and human gastric cancer cells overexpressing human EGFR MKN45-EGFR (Kelun-Biotech), human lung squamous cell carcinoma EBC-1 (Nanjing Cobioer Biosciences), human lung squamous cell carcinoma EBC-1-EGFR overexpressing human EGFR (Kelun-Biotech), human non-small cell lung cancer cell HCC827 (ATCC™), and human epidermal squamous cell carcinoma cell A431 (Nanjing Cobioer Biosciences). The protocol was as follows.
(§2) The adherent cells were digested with Trypsin-EDTA solution (0.25%) (Shanghai BasalMedia) and the cell density adjusted to 4.0×10⁶ per mL. The cells were washed twice with 1% BSA and resuspended in 1% BSA solution. Then 50 μL cell suspension was added to each well of a 96-well plate (the number of cells was 2×10⁵ per well). The antibody and its conjugate were diluted with 1% BSA (final concentration 10 µg/mL, 3-fold gradient dilution, a total of 11 concentration points). Then 50 μL of the diluted antibody and ADC were added to the wells of the 96-well plate and the plate was incubated at 4° C. for 60 minutes. The wells of the 96-well plate were then washed twice with 1% BSA, 50 μL of diluted secondary antibody was added to each well, and the 96-well plate was incubated at 4° C. for 30 minutes. Then the cells were washed twice with 1% BSA, and the cells were resuspended in 200 μL of 1% BSA and subjected to flow cytometry detection.

[2] = target: T1, human c-MET; assay: cell-based or functional assay
[3] = target: T1, human c-MET; assay: flow cytometry on EBC-1 cells (highly express c-MET)
Description: as §1, §2

T1 sequence (P08581 25-1390): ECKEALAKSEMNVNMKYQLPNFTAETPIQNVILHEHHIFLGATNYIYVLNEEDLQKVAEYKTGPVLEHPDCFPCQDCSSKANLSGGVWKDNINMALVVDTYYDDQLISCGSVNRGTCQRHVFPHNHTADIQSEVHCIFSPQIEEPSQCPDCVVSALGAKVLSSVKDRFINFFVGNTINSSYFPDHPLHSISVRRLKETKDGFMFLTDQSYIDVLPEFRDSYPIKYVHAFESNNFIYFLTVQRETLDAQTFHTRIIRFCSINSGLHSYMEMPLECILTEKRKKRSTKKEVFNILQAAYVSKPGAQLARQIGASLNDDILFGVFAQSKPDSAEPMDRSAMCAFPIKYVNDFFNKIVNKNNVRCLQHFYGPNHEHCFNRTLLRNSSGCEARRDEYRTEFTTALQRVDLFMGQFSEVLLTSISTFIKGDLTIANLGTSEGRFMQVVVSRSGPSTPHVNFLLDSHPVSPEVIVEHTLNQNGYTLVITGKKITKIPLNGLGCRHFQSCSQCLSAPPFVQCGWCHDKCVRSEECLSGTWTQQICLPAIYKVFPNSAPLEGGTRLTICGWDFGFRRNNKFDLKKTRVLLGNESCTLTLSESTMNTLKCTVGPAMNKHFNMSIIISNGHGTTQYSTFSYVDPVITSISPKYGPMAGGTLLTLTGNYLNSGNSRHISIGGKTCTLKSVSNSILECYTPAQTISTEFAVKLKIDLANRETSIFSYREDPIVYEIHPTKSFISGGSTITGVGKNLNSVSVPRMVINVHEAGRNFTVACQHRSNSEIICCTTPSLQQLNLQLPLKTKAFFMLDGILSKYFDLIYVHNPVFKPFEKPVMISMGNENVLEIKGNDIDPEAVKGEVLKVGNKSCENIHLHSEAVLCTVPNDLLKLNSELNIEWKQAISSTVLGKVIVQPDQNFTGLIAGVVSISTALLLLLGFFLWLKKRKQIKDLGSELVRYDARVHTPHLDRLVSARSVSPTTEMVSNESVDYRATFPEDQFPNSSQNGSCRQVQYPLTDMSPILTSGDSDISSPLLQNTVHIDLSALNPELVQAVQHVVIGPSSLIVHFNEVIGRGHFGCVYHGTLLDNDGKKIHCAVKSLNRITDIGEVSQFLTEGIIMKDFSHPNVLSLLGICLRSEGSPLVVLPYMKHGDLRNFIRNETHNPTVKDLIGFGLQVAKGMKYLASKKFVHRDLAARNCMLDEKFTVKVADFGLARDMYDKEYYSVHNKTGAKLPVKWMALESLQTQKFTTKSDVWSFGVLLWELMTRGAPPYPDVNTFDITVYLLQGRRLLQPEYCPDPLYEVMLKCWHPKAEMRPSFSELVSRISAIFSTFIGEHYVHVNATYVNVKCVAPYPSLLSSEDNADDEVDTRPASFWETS

Binder	EC50 [1] [nM]	IC50, in vitro cell killing (CCK8) on EBC-1 cells [2] [nM]	IC50, in vitro cell killing (CCK8) on MKN45 cells [2] [nM]	EC50 [3] [nM]
ADC 49B-A-05 (bispecific antibody, human IgG1, kappa, L234A L235A, linker-payload A-05 on reduced Cys sulfhydryls (sites not given); DAR of the whole ADC approximately 6) light: DIQMTQSPSSLSASVGDRVTITCKSSQSLLYTSSQKNYLAWYQQKPGKAPKLLIYWASTRESGVPSRFSGSGSGTDFTLTISSLQPEDFATYYCQQYYAYPWTFGQGTKVEIKRTVAAPSVFIFPPSDEQLKSGTASVVCLLNNFYPREAKVQWKVDNALQSGNSQESVTEQDSKDSTYSLSSTLTLSKADYEKHKVYACEVTHQGLSSPVTKSFNRGEC heavy: not shown AIQLTQSPSSLSASVGDRVTITCRASQDISSALVWYQQKPGKAPKLLIYDASSLESGVPSRFSGSESGTDFTLTISSLQPEDFATYYCQQFNSYPLTFGGGTKVEIKGGGGSGGGGSGGGGSQVQLVESGGGVVQPGRSLRLSCAASGFTFSTYGMHWVRQAPGKGLEWVAVIWDDGSYKYYGDSVKGRFTISRDNSKNTLYLQMNSLRAEDTAVYYCARDGITMVRGVMKDYFDYWGQGTLVTVSSGGGGDKTHTCPPCPAPEAAGGPSVFLFPPKPKDTLMISRTPEVTCVVVDVSHEDPEVKFNWYVDGVEVHNAKTKPREEQYNSTYRVVSVLTVLHQDWLNGKEYKCKVSNKALAAPIEKTISKAKGQPREPQVCTLPPSRDELTKNQVSLSCAVKGFYPSDIAVEWESNGQPENNYKTTPPVLDSDGSFFLVSKLTVDKSRWQQGNVFSCSVMHEALHNHYTQKSLSLSPGK	1.58	1.08	0.68	0.95
ADC 49B-B-01 (bispecific antibody, human IgG1, kappa, L234A L235A, linker-payload B-01 on reduced Cys sulfhydryls (sites not given); DAR of the whole ADC approximately 6) light: DIQMTQSPSSLSASVGDRVTITCKSSQSLLYTSSQKNYLAWYQQKPGKAPKLLIYWASTRESGVPSRFSGSGSGTDFTLTISSLQPEDFATYYCQQYYAYPWTFGQGTKVEIKRTVAAPSVFIFPPSDEQLKSGTASVVCLLNNFYPREAKVQWKVDNALQSGNSQESVTEQDSKDSTYSLSSTLTLSKADYEKHKVYACEVTHQGLSSPVTKSFNRGEC heavy: not shown AIQLTQSPSSLSASVGDRVTITCRASQDISSALVWYQQKPGKAPKLLIYDASSLESGVPSRFSGSESGTDFTLTISSLQPEDFATYYCQQFNSYPLTFGGGTKVEIKGGGGSGGGGSGGGGSQVQLVESGGGVVQPGRSLRLSCAASGFTFSTYGMHWVRQAPGKGLEWVAVIWDDGSYKYYGDSVKGRFTISRDNSKNTLYLQMNSLRAEDTAVYYCARDGITMVRGVMKDYFDYWGQGTLVTVSSGGGGDKTHTCPPCPAPEAAGGPSVFLFPPKPKDTLMISRTPEVTCVVVDVSHEDPEVKFNWYVDGVEVHNAKTKPREEQYNSTYRVVSVLTVLHQDWLNGKEYKCKVSNKALAAPIEKTISKAKGQPREPQVCTLPPSRDELTKNQVSLSCAVKGFYPSDIAVEWESNGQPENNYKTTPPVLDSDGSFFLVSKLTVDKSRWQQGNVFSCSVMHEALHNHYTQKSLSLSPGK	1.36	0.66	0.78	1.13
ADC 49B-A-14 (bispecific antibody, human IgG1, kappa, L234A L235A, linker-payload A-14 on reduced Cys sulfhydryls (sites not given); DAR of the whole ADC approximately 6) light: DIQMTQSPSSLSASVGDRVTITCKSSQSLLYTSSQKNYLAWYQQKPGKAPKLLIYWASTRESGVPSRFSGSGSGTDFTLTISSLQPEDFATYYCQQYYAYPWTFGQGTKVEIKRTVAAPSVFIFPPSDEQLKSGTASVVCLLNNFYPREAKVQWKVDNALQSGNSQESVTEQDSKDSTYSLSSTLTLSKADYEKHKVYACEVTHQGLSSPVTKSFNRGEC heavy: not shown AIQLTQSPSSLSASVGDRVTITCRASQDISSALVWYQQKPGKAPKLLIYDASSLESGVPSRFSGSESGTDFTLTISSLQPEDFATYYCQQFNSYPLTFGGGTKVEIKGGGGSGGGGSGGGGSQVQLVESGGGVVQPGRSLRLSCAASGFTFSTYGMHWVRQAPGKGLEWVAVIWDDGSYKYYGDSVKGRFTISRDNSKNTLYLQMNSLRAEDTAVYYCARDGITMVRGVMKDYFDYWGQGTLVTVSSGGGGDKTHTCPPCPAPEAAGGPSVFLFPPKPKDTLMISRTPEVTCVVVDVSHEDPEVKFNWYVDGVEVHNAKTKPREEQYNSTYRVVSVLTVLHQDWLNGKEYKCKVSNKALAAPIEKTISKAKGQPREPQVCTLPPSRDELTKNQVSLSCAVKGFYPSDIAVEWESNGQPENNYKTTPPVLDSDGSFFLVSKLTVDKSRWQQGNVFSCSVMHEALHNHYTQKSLSLSPGK	1.06	2.93	0.57	1.51
